Test results published in article PMC6358098.

Biological target: recombinant protruding (P) domain of Macrobrachium rosenbergii nodavirus capsid protein (MrNV-CP) (Macrobrachium rosenbergii nodavirus)
Assay: SEC; HiPrep 16/60 Sephacryl S-200 HR, Tris-HCl buffer (20 mM Tris-HCl, 100 mM NaCl, pH 7.6); elution profile overlaid with those of standard protein markers

**Q.** Which stoichiometry N does the source give for “recombinant protruding (P) domain of Macrobrachium rosenbergii nodavirus capsid protein (MrNV-CP) (domain or fragment)” here?
**A.** 2
